Key:
HeLa Kyoto [1] = assay: solubility in G1/S (NP-40 vs SDS abundance) (log2 ratio); higher = more soluble; conditions: cell cycle stage: G1/S
HeLa Kyoto [2] = assay: melting temperature (median over replicates), in situ; higher = more thermally stable
HeLa Kyoto [3] = assay: solubility change mitosis vs G1/S (difference of NP-40 vs SDS log2 ratios) (log2 ratio difference); higher = more soluble in mitosis
HeLa Kyoto [4] = assay: thermal stability score vs G1/S (z-score of summed log2 fold changes over temperatures); higher = more thermally stable than in G1/S
[5] = cell cycle stage: early G1 (4.5 h after nocodazole release)
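Wherever melting temperature (median over replicates), in situ is given: HeLa Kyoto cells synchronized by double thymidine or nocodazole block, proteins quantified by TMT10plex mass spectrometry, three independent biological replicates.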
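Wherever solubility change mitosis vs G1/S (difference of NP-40 vs SDS log2 ratios) is given: synchronized HeLa Kyoto cells (double thymidine block for G1/S, nocodazole release for mitosis), protein amounts in NP-40 versus SDS lysates quantified by mass spectrometry, three biological replicates.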
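Wherever solubility in G1/S (NP-40 vs SDS abundance) is given: HeLa Kyoto cells arrested at G1/S by double thymidine block, proteins quantified by TMT10plex mass spectrometry in mild NP-40 versus SDS extracts, three biological replicates.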
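Wherever thermal stability score vs G1/S (z-score of summed log2 fold changes over temperatures) is given: synchronized HeLa Kyoto cells, proteins quantified by TMT10plex mass spectrometry, three biological replicates, mitosis taken 0.5 h after nocodazole release, G1/S directly after double thymidine block.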

| Sequence | solubility in G1/S (log2) (HeLa Kyoto [1]) | melting temperature (HeLa Kyoto [2]; cell cycle stage: G1/S) | melting temperature (HeLa Kyoto [2]; cell cycle stage: mitosis) | solubility change mitosis (log2) (HeLa Kyoto [3]) | thermal stability score (HeLa Kyoto [4]; [5]) | thermal stability score (HeLa Kyoto [4]; cell cycle stage: mitosis) |
| --- | --- | --- | --- | --- | --- | --- |
| MAEISDLDRQIEQLRRCELIKESEVKALCAKAREILVEESNVQRVDSPVTVCGDIHGQFYDLKELFRVGGDVPETNYLFMGDFVDRGFYSVETFLLLLALKVRYPDRITLIRGNHESRQITQVYGFYDECLRKYGSVTVWRYCTEIFDYLSLSAIIDGKIFCVHGGLSPSIQTLDQIRTIDRKQEVPHDGPMCDLLWSDPEDTTGWGVSPRGAGYLFGSDVVAQFNAANDIDMICRAHQLVMEGYKWHFNETVLTVWSAPNYCYRCGNVAAILELDEHLQKDFIIFEAAPQETRGIPSKKPVADYFL [PPP4C] | -0.237 | 54.8 °C | 55.3 °C | -0.0748 | 0.0354 | -1.42 |
| MMTSVGTNRARGNWEQPQNQNQTQHKQRPQATAEQIRLAQMISDHNDADFEEKVKQLIDITGKNQDECVIALHDCNGDVNRAINVLLEGNPDTHSWEMVGKKKGVSGQKDGGQTESNEEGKENRDRDRDYSRRRGGPPRRGRGASRGREFRGQENGLDGTKSGGPSGRGTERGRRGRGRGRGGSGRRGGRFSAQGMGTFNPADYAEPANTDDNYGNSSGNTWNNTGHFEPDDGTSAWRTATEEWGTEDWNEDLSETKIFTASNVSSVPLPAENVTITAGQRIDLAVLLGKTPSTMENDSSNLDPSQAPSLAQPLVFSNSKQTAISQPASGNTFSHHSMVSMLGKGFGDVGEAKGGSTTGSQFLEQFKTAQALAQLAAQHSQSGSTTTSSWDMGSTTQSPSLVQYDLKNPSDSAVHSPFTKRQAFTPSSTMMEVFLQEKSPAVATSTAAPPPPSSPLPSKSTSAPQMSPGSSDNQSSSPQPAQQKLKQQKKKASLTSKIPALAVEMPGSADISGLNLQFGALQFGSEPVLSDYESTPTTSASSSQAPSSLYTSTASESSSTISSNQSQESGYQSGPIQSTTYTSQNNAQGPLYEQRSTQTRRYPSSISSSPQKDLTQAKNGFSSVQATQLQTTQSVEGATGSAVKSDSPSTSSIPPLNETVSAASLLTTTNQHSSSLGGLSHSEEIPNTTTTQHSSTLSTQQNTLSSSTSSGRTSTSTLLHTSVESEANLHSSSSTFSTTSSTVSAPPPVVSVSSSLNSGSSLGLSLGSNSTVTASTRSSVATTSGKAPPNLPPGVPPLLPNPYIMAPGLLHAYPPQVYGYDDLQMLQTRFPLDYYSIPFPTPTTPLTGRDGSLASNPYSGDLTKFGRGDASSPAPATTLAQPQQNQTQTHHTTQQTFLNPALPPGYSYTSLPYYTGVPGLPSTFQYGPAVFPVAPTSSKQHGVNVSVNASATPFQQPSGYGSHGYNTGVSVTSSNTGVPDISGSVYSKTQQSFEKQGFHSGTPAASFNLPSALGSGGPINPATAAAYPPAPFMHILTPHQQPHSQILHHHLQQDGQTGSGQRSQTSSIPQKPQTNKSAYNSYSWGAN [UBAP2L] | -0.0783 | 55.5 °C | 54.2 °C | 0.0243 | -3.92 | -3.52 |
| MPAVDKLLLEEALQDSPQTRSLLSVFEEDAGTLTDYTNQLLQAMQRVYGAQNEMCLATQQLSKQLLAYEKQNFALGKGDEEVISTLHYFSKVVDELNLLHTELAKQLADTMVLPIIQFREKDLTEVSTLKDLFGLASNEHDLSMAKYSRLPKKKENEKVKTEVGKEVAAARRKQHLSSLQYYCALNALQYRKQMAMMEPMIGFAHGQINFFKKGAEMFSKRMDSFLSSVADMVQSIQVELEAEAEKMRVSQQELLSVDESVYTPDSDVAAPQINRNLIQKAGYLNLRNKTGLVTTTWERLYFFTQGGNLMCQPRGAVAGGLIQDLDNCSVMAVDCEDRRYCFQITTPNGKSGIILQAESRKENEEWICAINNISRQIYLTDNPEAVAIKLNQTALQAVTPITSFGKKQESSCPSQNLKNSEMENENDKIVPKATASLPEAEELIAPGTPIQFDIVLPATEFLDQNRGSRRTNPFGETEDESFPEAEDSLLQQMFIVRFLGSMAVKTDSTTEVIYEAMRQVLAARAIHNIFRMTESHLMVTSQSLRLIDPQTQVSRANFELTSVTQFAAHQENKRLVGFVIRVPESTGEESLSTYIFESNSEGEKICYAINLGKEIIEVQKDPEALAQLMLSIPLTNDGKYVLLNDQPDDDDGNPNEHRGAESEA [APPL2] | 0.193 | 49.1 °C | 49.5 °C | -0.0416 | -0.102 | 0.993 |
| MDELAGGGGGGPGMAAPPRQQQGPGGNLGLSPGGNGAAGGGGPPASEGAGPAAGPELSRPQQYTIPGILHYIQHEWARFEMERAHWEVERAELQARIAFLQGERKGQENLKKDLVRRIKMLEYALKQERAKYHKLKYGTELNQGDLKMPTFESEETKDTEAPTAPQNSQLTWKQGRQLLRQYLQEVGYTDTILDVRSQRVRSLLGLSNSEPNGSVETKNLEQILNGGESPKQKGQEIKRSSGDVLETFNFLENADDSDEDEENDMIEGIPEGKDKHRMNKHKIGNEGLAADLTDDPDTEEALKEFDFLVTAEDGEGAGEARSSGDGTEWDKDDLSPTAEVWDVDQGLISKLKEQYKKERKGKKGVKRANRTKLYDMIADLGDDELPHIPSGIINQSRSASTRMTDHEGARAEEAEPITFPSGGGKSFIMGSDDVLLSVLGLGDLADLTVTNDADYSYDLPANKDAFRKTWNPKYTLRSHFDGVRALAFHPVEPVLVTASEDHTLKLWNLQKTVPAKKSASLDVEPIYTFRAHIGPVLSLAISSNGEQCFSGGIDATIQWWNMPSPSVDPYDTYEPNVLAGTLVGHTDAVWGLAYSGIKNQLLSCSADGTVRLWNPQEKLPCICTYNGDKKHGIPTSVDFIGCDPAHMVTSFNTGSAVIYDLETSQSLVILSSQVDSGLQSNNHINRVVSHPTLPVTITAHEDRHIKFFDNKTGKMIHSMVAHLDAVTSLAVDPNGIYLMSGSHDCSIRLWNLDSKTCVQEITAHRKKLDESIYDVAFHSSKAYIASAGADALAKVFV [STRN3] | -0.0799 | 52.1 °C | 52.4 °C | -0.0757 | -0.00707 | -0.722 |
| MASSNTVLMRLVASAYSIAQKAGMIVRRVIAEGDLGIVEKTCATDLQTKADRLAQMSICSSLARKFPKLTIIGEEDLPSEEVDQELIEDSQWEEILKQPCPSQYSAIKEEDLVVWVDPLDGTKEYTEGLLDNVTVLIGIAYEGKAIAGVINQPYYNYEAGPDAVLGRTIWGVLGLGAFGFQLKEVPAGKHIITTTRSHSNKLVTDCVAAMNPDAVLRVGGAGNKIIQLIEGKASAYVFASPGCKKWDTCAPEVILHAVGGKLTDIHGNVLQYHKDVKHMNSAGVLATLRNYDYYASRVPESIKNALVP [BPNT1] | 0.211 | 57.5 °C | 57.9 °C | -0.0215 | -0.366 | -1.21 |
| MFSLDSFRKDRAQHRQRQCKLPPPRLPPMCVNPTPGGTISRASRDLLKEFPQPKNLLNSVIGRALGISHAKDKLVYVHTNGPKKKKVTLHIKWPKSVEVEGYGSKKIDAERQAAAAACQLFKGWGLLGPRNELFDAAKYRVLADRFGSPADSWWRPEPTMPPTSWRQLNPESIRPGGPGGLSRSLGREEEEDEEEELEEGTIDVTDFLSMTQQDSHAPLRDSRGSSFEMTDDDSAIRALTQFPLPKNLLAKVIQIATSSSTAKNLMQFHTVGTKTKLSTLTLLWPCPMTFVAKGRRKAEAENKAAALACKKLKSLGLVDRNNEPLTHAMYNLASLRELGETQRRPCTIQVPEPILRKIETFLNHYPVESSWIAPELRLQSDDILPLGKDSGPLSDPITGKPYVPLLEAEEVRLSQSLLELWRRRGPVWQEAPQLPVDPHRDTILNAIEQHPVVVISGDTGCGKTTRIPQLLLERYVTEGRGARCNVIITQPRRISAVSVAQRVSHELGPSLRRNVGFQVRLESKPPSRGGALLFCTVGILLRKLQSNPSLEGVSHVIVDEVHERDVNTDFLLILLKGLQRLNPALRLVLMSATGDNERFSRYFGGCPVIKVPGFMYPVKEHYLEDILAKLGKHQYLHRHRHHESEDECALDLDLVTDLVLHIDARGEPGGILCFLPGWQEIKGVQQRLQEALGMHESKYLILPVHSNIPMMDQKAIFQQPPVGVRKIVLATNIAETSITINDIVHVVDSGLHKEERYDLKTKVSCLETVWVSRANVIQRRGRAGRCQSGFAYHLFPRSRLEKMVPFQVPEILRTPLENLVLQAKIHMPEKTAVEFLSKAVDSPNIKAVDEAVILLQEIGVLDQREYLTTLGQRLAHISTDPRLAKAIVLAAIFRCLHPLLVVVSCLTRDPFSSSLQNRAEVDKVKALLSHDSGSDHLAFVRAVAGWEEVLRWQDRSSRENYLEENLLYAPSLRFIHGLIKQFSENIYEAFLVGKPSDCTLASAQCNEYSEEEELVKGVLMAGLYPNLIQVRQGKVTRQGKFKPNSVTYRTKSGNILLHKSTINREATRLRSRWLTYFMAVKSNGSVFVRDSSQVHPLAVLLLTDGDVHIRDDGRRATISLSDSDLLRLEGDSRTVRLLKELRRALGRMVERSLRSELAALPPSVQEEHGQLLALLAELLRGPCGSFDVRKTADD [DHX30] | -1.02 | 51.1 °C | 51.2 °C | 0.218 | -0.697 | -0.349 |

Source: the supplement of paper PMC5998384
